Experiments:
[1] = biological target: T1, Mouse MSLN (Mus musculus, UniProt Q61468); assay: FACS on 293T cells transiently expressing the orthologue
T1 construct: also called murine mesothelin
T1 sequence (target, looked up): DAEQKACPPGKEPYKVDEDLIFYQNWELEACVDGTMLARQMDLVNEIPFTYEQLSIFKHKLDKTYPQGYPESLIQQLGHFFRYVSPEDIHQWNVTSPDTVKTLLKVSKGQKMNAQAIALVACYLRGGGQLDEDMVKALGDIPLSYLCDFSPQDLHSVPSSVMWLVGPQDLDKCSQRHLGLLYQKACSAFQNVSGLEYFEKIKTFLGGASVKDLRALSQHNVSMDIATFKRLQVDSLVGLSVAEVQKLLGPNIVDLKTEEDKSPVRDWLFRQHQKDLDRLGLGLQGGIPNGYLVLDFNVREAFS
Method: (§1) FACs assays were performed by incubating hybridoma supernatants with 10,000 to 25,000 cells in PBS/2% Fetal bovine serum/2 mM Calcium Chloride at 4° C. for one hour followed by two washes with PBS/2% Fetal bovine serum/2 mM Calcium Chloride. Cells were then treated with florochrome-labeled secondary antibodies at 4° C. followed by one wash. The cells were resuspended in 50 μl of PBS/2% FBS and antibody binding was analyzed using a FACSCalibur™ instrument.

[2] = biological target: T2, Rat MSLN (Rattus norvegicus, UniProt Q9ERA7); assay: as above
T2 construct: also called rat mesothelin
T2 sequence (target, looked up): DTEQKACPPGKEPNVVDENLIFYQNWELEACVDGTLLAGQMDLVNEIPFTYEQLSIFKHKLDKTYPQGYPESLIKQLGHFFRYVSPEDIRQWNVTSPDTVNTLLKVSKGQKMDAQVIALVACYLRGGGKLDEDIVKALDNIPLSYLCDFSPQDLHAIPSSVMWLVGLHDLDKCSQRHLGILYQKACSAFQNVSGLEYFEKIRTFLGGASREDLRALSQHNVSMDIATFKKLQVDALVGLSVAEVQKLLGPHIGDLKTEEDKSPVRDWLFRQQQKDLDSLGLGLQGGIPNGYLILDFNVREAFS
Method: as §1

Binder	binding result [1]	binding result [2]
158.3 (antibody, V domains shown, also called 1.58.3 g1; 1.58.3 g2) VH: QVQLQESGPGLVKPSETLSLTCTVSGGSIISHYWSWIRQPPGKGLEWIGYIYYSGSTNYNPSLKSRVTISVDTSKNQFSLKLTSVTAADTAVYYCARDGWSAFDYWGQGTLVTVSS VL: DIQMTQSPSSLSASVGDRVTITCRASQGIRNALGWYQQKPGKAPKRLIYAASSLQSGVPSRFSGSGSGTEFTLTISSLQPEDFATYYCLQHNSYPRTFGQGTKVEIRR	no binding	
151 (antibody, V domains shown, also called Ab1.51) VH: QVQLQESGPGLVKPSETLSLTCTVSGGSISSYYWSWIRQPPGKGLEWIGYIYYSGSTNYNPSLKSRVTISVDTSKNQFSLKLSSVTAADTAVYYCARVDYKAFDIWGQGTMVTVSS VL: DIQMTQSPSSLSASVGDRVTITCRASQGIRNDLHWYQQKPGKAPKRLIYAASSLQSGVPSRFSGSGSGTEFTLTISSLQPEDFATYYCLQHYSYPWTFGQGTKVEIK	no binding	
Ab237 (Hu-anti-huMesothelin-2.37-IgG1) (antibody, V domains shown, Fully human antibody from XenoMouse; Only the variable domains are tied to Ab237) VH: QVQLQESGPGLVKPSQTLSLTCTVSGGSINNNNYYWTWIRQHPGKGLEWIGYIYYSGSTFYNPSLKSRVTISVDTSKTQFSLKLSSVTAADTAVYYCAREDTMTGLDVWGQGTTVTVSS VL: DIQMTQSPSSLSASVGDRVTITCRASQSINNYLNWYQQKPGKAPTLLIYAASSLQSGVPSRFSGSRSGTDFTLTISSLQPEDFAAYFCQQTYSNPTFGQGTKVEVK	binds	binds
